The values below come from patent US20160304628A1.

Primed or numbered codes have the meaning given here. Where no end group is shown, it is not given here. [ ]: non-standard residue; d: D form. The star is where a group is joined. Hpra′ = its azide, alkyne or alkene has reacted where a group follows in round brackets; Man9 = Man9 glycan, attached by click reaction of Man9-azide with homopropargylglycine; maleimide‑biotin = maleimide-biotin reagent joined to deprotected Cys; For = O=C*

Assay [1] deals with HIV broadly neutralizing monoclonal antibody 2G12. Put plainly: radiolabeled glycopeptide, 2G12 titration, protein G bead capture, scintillation counting.
For assay [2] the target is unchanged. Description: BLI (BLItz), biotin-10F2 on streptavidin sensor, 2G12 in solution at 1 nM; global 1:1 fit.
Assay [3] has the same target. Description: BLI (BLItz), biotin-10F2 on streptavidin sensor, 2G12 in solution at 8 nM; global 1:1 fit.
Assay [4] has the same target. Description: BLI (BLItz), biotin-10F2 on streptavidin sensor, 2G12 in solution at 1 nM.
The target is the same in assay [5]. Put plainly: BLI (BLItz), biotin-10F2 on streptavidin sensor, 2G12 in solution at 2 nM; global 1:1 fit.
For assay [6] the target is unchanged. Description: BLI (BLItz), biotin-10F2 on streptavidin sensor, 2G12 in solution at 32 nM.
The target is the same in assay [7]. Put plainly: BLI (BLItz), biotin-10F2 on streptavidin sensor, 2G12 in solution at 8 nM.
Assay [8] has the same target. Description: BLI (BLItz), biotin-10F2 on streptavidin sensor, 2G12 in solution at 16 nM.
Assay [9] has the same target. Description: BLI (BLItz), biotin-10F2 on streptavidin sensor, 2G12 in solution at 4 nM; global 1:1 fit.
The target is the same in assay [10]. Put plainly: BLI (BLItz), biotin-10F2 on streptavidin sensor, 2G12 in solution at 16 nM; global 1:1 fit.
Assay [11] shares this target. Description: BLI (BLItz), biotin-10F2 on streptavidin sensor, 2G12 in solution at 0.5 nM; global 1:1 fit.
Assay [12] shares this target. Put plainly: BLI (BLItz), biotin-10F2 on streptavidin sensor, 2G12 in solution at 32 nM; global 1:1 fit.
The target is the same in assay [13]. Description: BLI (BLItz), biotin-10F2 on streptavidin sensor, 2G12 in solution at 4 nM.
Assay [14] shares this target. Put plainly: BLI (BLItz), biotin-10F2 on streptavidin sensor, 2G12 in solution at 2 nM.
The target is the same in assay [15]. Description: BLI (BLItz), biotin-10F2 on streptavidin sensor, 2G12 in solution at 0.5 nM.

B1: glycopeptide 10F12 (Fixed library, round 10) (peptide)
peptide: For-[Hpra′](Man9)CYVTVIPA[Hpra′](Man9)N[Hpra′](Man9)PEARLGIVCH[Hpra′](Man9)PGIRRGKALYGSGSLGHHHHHHRDYKDDDDK
modifications: not fully specified; cysteine pairing not given here
As a reminder, the Kd is the free concentration of one partner at which half of the binding sites on the other are occupied at equilibrium, for simple one-to-one binding. Read a low Kd as tighter binding. As for B1, in [1], the Fmax amounted to 90% and the Kd turned out to be 0.77 nM.

B2: glycopeptide 10F5 (Fixed library, round 10) (peptide)
peptide: For-[Hpra′](Man9)SPHLPVLLCK[Hpra′](Man9)VLNDGRRIVQ[Hpra′](Man9)SCELP[Hpra′](Man9)VRRSGSGSLGHHHHHHRDYKDDDDK
modifications: not fully specified; cysteine pairing not given here
In the case of B2, in assay [1], the Fmax was 93% and the Kd worked out at 0.97 nM.

B3: biotinylated synthetic 10F2 glycopeptide 3 (peptide)
peptide: For-[Hpra′](Man9)HPYNTSRTSA[Hpra′](Man9)[Hpra′](Man9)AALK[Hpra′](Man9)QVTD[Hpra′](Man9)YALALFHRILGSGSGC(maleimide‑biotin)A
What is called koff is the first-order rate constant of dissociation. Higher therefore signals fast dissociation. What is called kon is a measure of how fast the partners come together. Read a high kon as fast association. With B3, the Kd in assay [2], in [3], in assay [5], in [9], in [10] and in assay [11] was 1.37 nM each time. The molecule also came in with a Kd in assay [12] of 1.37 nM. For the same molecule, the koff in [2], in [3], in assay [5], in [9], in assay [10] and in assay [11] was 0.000151 s⁻¹ throughout. This molecule also gave a koff in assay [12] of 0.000151 s⁻¹. The kon in assay [2], in assay [3], in assay [5], in [9], in assay [10] and in [11] was 111000 M⁻¹ s⁻¹ in each case. This molecule showed a kon in assay [12] of 111000 M⁻¹ s⁻¹. For the same molecule, the Req was determined as 0.682 in assay [4]; 1.39 in assay [6]; 1.37 in [7]; 1.41 in assay [8]; 1.26 in [13]; 0.987 in assay [14]. Besides, the Req in assay [15] worked out at 0.481.
